US20230220007A1, “SETD7 EPIGENETIC MODULATORS” (Biorchestra Co., Ltd., priority 2020, published 2023)
Changes are numbered by the printed parent chain. Names may count otherwise.

B1: E356A: SETD7 substitution mutant at position 356 (protein)
chain: MDSDDEMVEEAVEGHLDDDGLPHGFCTVTYSSTDRFEGNFVHGEKNGRGKFFFFDGSTLEGYYVDDALQGQGVYTYEDGGVLQGTYVDGELNGPAQEYDTDGRLIFKGQYKDNIRHGVCWIYYPDGGSLVGEVNEDGEMTGEKIAYVYPDERTALYGKFIDGEMIEGKLATLMSTEEGRPHFELMPGNSVYHFDKSTSSCISTNALLPDPYESERVYVAESLISSAGEGLFSKVAVGPNTVMSFYNGVRITHQEVDSRDWALNGNTLSLDEETVIDVPEPYNHVSKYCASLGHKANHSFTPNCIYDMFVHPRFGPIKCIRTLRAVEADEELTVAYGYDHSPPGKSGPEAPEWYQVALKAFQATQQK
B2: Q361A: SETD7 substitution mutant at position 361 (protein)
chain: B1 chain with A356E, Q361A
B3: K366A: SETD7 substitution mutant at position 366 (protein)
chain: B1 chain with A356E, K366A
B4: K358A: SETD7 substitution mutant at position 358 (protein)
chain: B1 chain with A356E, K358A
B5: S345: SETD7 mutant, Ser345 mutated to alanine (phospho-disrupting mutation) (protein, UniProt Q8WTS6 1-366, looked up, variant S345A)
Histone-lysine …: B1 chain with S345A, A356E
B6: K317A: SETD7 substitution mutant at position 317 (protein)
chain: B1 chain with K317A, A356E
B7: SETD7 T332E/S340D/S345D: SETD7-GFP mutant with three phospho-mimicking substitutions (protein, UniProt Q8WTS6 1-366, looked up, variant T332E S340D S345D)
Histone-lysine …: B1 chain with T332E, S340D, S345D, A356E
modifications: GFP tag
notes: SETD7-GFP mutant with three phospho-mimicking substitutions
B8: SETD7 S340A: SETD7 mutant, Ser340 mutated to alanine; cannot be phosphorylated (protein)
chain: B1 chain with S340A, A356E
B9: SETD7 S340D: SETD7-GFP mutant with phospho-mimicking substitution S340D (protein, UniProt Q8WTS6 1-366, looked up, variant S340D)
Histone-lysine …: B1 chain with S340D, A356E
modifications: GFP tag
B10: WT SETD7: wild type histone-lysine N-methyltransferase SETD7, full length (SEQ ID NO: 37) (protein)
chain: B1 chain with A356E
B11: SETD7 T332E: SETD7-GFP mutant with phospho-mimicking substitution T332E (protein, UniProt Q8WTS6 1-366, looked up, variant T332E)
Histone-lysine …: B1 chain with T332E, A356E
modifications: GFP tag
B12: K294A: SETD7 substitution mutant at position 294 (protein)
chain: B1 chain with K294A, A356E
B13: SETD7 H297A/T332E/S340D/S345D: catalytically inert phospho-mimicking SETD7 mutant due to the H297A mutation (protein)
chain: B1 chain with H297A, T332E, S340D, S345D, A356E
B14: S225A: SETD7 mutant, Ser225 mutated to alanine (phospho-disrupting mutation) (protein)
chain: B1 chain with S225A, A356E
B15: Q365A: SETD7 substitution mutant at position 365 (protein)
chain: B1 chain with A356E, Q365A
B16: SETD7 T332A: SETD7 mutant, Thr332 mutated to alanine; cannot be phosphorylated (protein)
chain: B1 chain with T332A, A356E
B17: Y305A: SETD7 mutant, Tyr305 mutated to alanine (phospho-disrupting mutation) (protein)
chain: B1 chain with Y305A, A356E

How the values were obtained:
[1] = system: histone; conditions: cited from earlier work; for monomethyl transferase activity: SETD7 substitution mutants
[2] = system: human retinal pigment epithelial cells (RPE); test: Nuclear translocation of SETD7 alanine (phospho-disrupting) mutants in response to high glucose levels; assay type: cell-based; conditions: mutants expressed in human RPE cells; FIG. 3
From the text: To identify the potential role of phosphorylatable sites located in the C-terminal regions of SETD7 (FIG. 1), phosphorylatable serines, threonines and tyrosines at positions 225, 305, 332, 340, and 345 where mutated to alanine (phospho-disrupting mutations) and expressed in human retinal pigment epithelial cells (RPE). Nuclear translocation or lack thereof in response to high glucose levels was examined (FIG. 2).
SETD7 cellular distribution changed in response to changes in glucose levels for wild type SETD7 (WT) and SETD7 mutants comprising a S225A substitution or a Y305A substitutions.

[3] = system: TAF10; conditions: cited from earlier work
[4] = system: H3 and p53/TP53; conditions: cited from earlier work
[5] = system: human retinal pigment epithelial (RPE) cells; test: Cellular distribution of SETD7-GFP mutants under low or high glucose (GFP fluorescence); assay type: cell-based; conditions: SETD7-GFP mutants in human RPE cells; low glucose and high glucose conditions; FIG. 4
Experimental: SETD7-GFP mutants with phospho-mimicking substitutions at positions 332, 340 and/or 345 were prepared. The phospho-mimicking substitutions were T332E, S340D, and/or S345D. The SETD7-GFP mutants were expressed in human retinal pigment epithelial (RPE) cells. The fluorescence intensity emitted from the GFP signal in the cells under high or low glucose condition was measured.

Molecule	nuclear translocation in response to changes in glucose [2]	translocation to the nucleus [5]	also measured
B1			monomethyl transferase activity [1]: partial loss
B2			monomethyl transferase activity [1]: partial loss
B3			monomethyl transferase activity [1]: partial loss
B4			monomethyl transferase activity [1]: partial loss
B5	did not translocate to the nucleus		
B6			methyltransferase activity toward TAF10 [3]: reduction; methyltransferase activity for H3 and p53/TP53 [4]: increased
B7		translocated to the nucleus	
B8	did not translocate to the nucleus	not translocated to the nucleus	
B9		translocated to the nucleus	
B10	translocated normally to the nucleus		
B11		translocated to the nucleus	
B12			catalytic activity (e.g., monomethyl transferase activity) [1]: reduces
B13		translocated to the nucleus	
B14	translocated normally to the nucleus		
B15			monomethyl transferase activity [1]: partial loss
B16	did not translocate to the nucleus	not translocated to the nucleus	
B17	translocated normally to the nucleus		
